{
  "source": "patent US20060084085",
  "proteins": {"B1": {"name": "human SIRT1 (protein)", "chain": "MADEAALALQPGGSPSAAGADREAASSPAGEPLRKRPRRDGPGLERSPGEPGGAAPEREVPAAARGCPGAAAAALWREAEAEAAAAGGEQEAQATAAAGEGDNGPGLQGPSREPPLADNLYDEDDDDEGEEEEEAAAAAIGYRDNLLFGDEIITNGFHSCESDEEDRASHASSSDWTPRPRIGPYTFVQQHLMIGTDPRTILKDLLPETIPPPELDDMTLWQIVINILSEPPKRKKRKDINTIEDAVKLLQECKKIIVLTGAGVSVSCGIPDFRSRDGIYARLAVDFPDLPDPQAMFDIEYFRKDPRPFFKFAKEIYPGQFQPSLCHKFIALSDKEGKLLRNYTQNIDTLEQVAGIQRIIQCHGSFATASCLICKYKVDCEAVRGDIFNQVVPRCPRCPADEPLAIMKPEIVFFGENLPEQFHRAMKYDKDEVDLLIVIGSSLKVRPVALIPSSIPHEVPQILINREPLPHLHFDVELLGDCDVIINELCHRLGGEYAKLCCNPVKLSEITEKPPRTQKELAYLSELPPTPLHVSEDSSSPERTSPPDSSVIVTLLDQAAKSNDDLDVSESKGCMEEKPQEVQTSRNVESIAEQMENPDLKNVGSSTGEKNERTSVAGTVRKCWPNRVAKEQISRRLDGNQYLFLPPNRYIFHGAEVYSDSEDDVLSSSSCGSNSDSGTCQSPSLEEPMEDESEIEEFYNGLEDEPDVPERAGGAGFGTDGDDQEAINEAISVKQEVTDMNYPSNKS"}, "B2": {"name": "recombinant histone acetyltransferase (HAT) domain of CBP (protein)", "chain": "LEALYRQDPESLPFRQPVDPQLLGIPDYFDIVKNPMDLSTIKRKLDTGQYQEPWQYVDDVWLMFNNAWLYNRKTSRVYKFCSKLAEVFEQEIDPVMQSLGYCCGRKYEFSPQTLCCYGKQLCTIPRDAAYYSYQNRYHFCEKCFTEIQGENVTLGDDPSQPQTTISKDQFEKKKNDTLDPEPFVDCKECGRKMHQICVLHYDIIWPSGFVCDNCLKKTGRPRKENKFSAKRLQTTRLGNHLEDRVNKFLRRQNHPEAGEVFVRVVASSDKTVEVKPGMKSRFVDSGEMSESFPYRTKALFAFEEIDGVDVCFFGMHVQEYGSDCPPPNTRRVYISYLDSIHFFRPRCLRTAVYHEILIGYLEYVKKLGYVTGHIWACPPSEGDDYIFHCHPPDQKIPKPKRLQEWYKKMLDKAFAERIIHDYKDIFKQATEDRLTSAKELPYFEGDFWPNVLEESIKELEQEEEERKKEESTAASETTEGSQGDSKNAKKKNNKKTNKNKSSISRANKKKPSMPNVSNDLSQKLYATMEKHKEVFFVIHLHAGPVINTLPPIVDPDPLLSCDLMDGRDAFLTLARDKHWEFSSLRRSKWSTLCMLVELHTQGQDRFVYTCNECKHHVETRWHCTVCEDYDLCINCYNTKSHAHKMVKWGLGLDDEGSSQGE"}, "B3": {"name": "recombinant histone acetyltransferase (HAT) domain of p300 (protein)", "chain": "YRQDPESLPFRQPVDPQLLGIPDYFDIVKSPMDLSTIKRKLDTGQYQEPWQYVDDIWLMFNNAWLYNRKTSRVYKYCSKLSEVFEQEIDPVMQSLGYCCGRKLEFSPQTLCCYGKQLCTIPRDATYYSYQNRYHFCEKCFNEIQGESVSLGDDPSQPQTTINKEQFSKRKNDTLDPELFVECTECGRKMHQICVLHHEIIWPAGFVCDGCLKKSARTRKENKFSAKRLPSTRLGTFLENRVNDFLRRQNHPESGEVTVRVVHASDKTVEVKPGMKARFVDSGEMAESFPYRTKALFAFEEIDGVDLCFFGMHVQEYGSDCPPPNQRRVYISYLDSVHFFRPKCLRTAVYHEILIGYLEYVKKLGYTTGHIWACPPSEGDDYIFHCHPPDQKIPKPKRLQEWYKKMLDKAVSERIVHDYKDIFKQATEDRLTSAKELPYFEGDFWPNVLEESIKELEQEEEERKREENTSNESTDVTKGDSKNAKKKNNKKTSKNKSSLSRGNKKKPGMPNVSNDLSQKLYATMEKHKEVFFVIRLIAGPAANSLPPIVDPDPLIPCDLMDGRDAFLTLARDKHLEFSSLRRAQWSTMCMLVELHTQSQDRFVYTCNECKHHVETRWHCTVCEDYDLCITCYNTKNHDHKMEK"}, "B4": {"name": "recombinant histone acetyltransferase (HAT) domain of PCAF (protein)", "chain": "MLEEEVYSQNSPIWDQDFLSASSRTSQLGIQTVINPPPVAGTISYNSTSSSLEQPNAGSSSPACKASSGLEANPGEKRKMTDSHVLEEAKKPRVMGDIPMELINEVMSTITDPAAMLGPETNFLSAHSARDEAARLEERRGVIEFHVVGNSLNQKPNKKILMWLVGLQNVFSHQLPRMPKEYITRLVFDPKHKTLALIKDGRVIGGICFRMFPSQGFTEIVFCAVTSNEQVKGYGTHLMNHLKEYHIKHDILNFLTYADEYAIGYFKKQGFSKEIKIPKTKYVGYIKDYEGATLMGCELNPRIPYTEFSVIIKKQKEIIKKLIERKQAQIRKVYPGLSCFKDGVRQIPIESIPGIRETGWKPSGKEKSKEPRDPDQLYSTLKSILQQVKSHQSAWPFMEPVKRTEAPGYYEVIRFPMDLKTMSERLKNRYYVSKKLFMADLQRVFTNCKEYNPPESEYYKCANILEKFFFSKIKEAGLIDK"}},
  "key": {"[1]": {"target": "T1, acetylated Ku70 K539 peptide DYNPEGK-AcVTKRKC", "T1 chain": "DYNPEGKVTKRKC"}, "[2]": {"target": "T2, acetylated Ku70 K542 peptide PEGKVTK-AcRKHDNC", "T2 chain": "PEGKVTKRKHDNC"}, "[3]": {"target": "acetylated Ku70-K331 peptide"}, "[4]": {"target": "T3, Ku70 peptide 16 (amino acids 325-341)", "T3 chain": "RQIILEKEETEELKRFD"}, "[5]": {"target": "T4, Ku70 peptide 29 (amino acids 541-562)", "T4 chain": "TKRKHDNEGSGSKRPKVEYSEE"}, "[6]": {"target": "T5, peptide 29 variant that retained K542 (KRRR)", "T5 chain": "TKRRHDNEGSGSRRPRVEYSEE"}, "[7]": {"target": "T6, peptide 29 variant that retained K553 (RRKR)", "T6 chain": "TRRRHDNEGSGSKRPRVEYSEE"}, "[8]": {"target": "recombinant Ku70/80 complex, P13010", "sequence (chain, as listed by the source, chain 1 of 2)": "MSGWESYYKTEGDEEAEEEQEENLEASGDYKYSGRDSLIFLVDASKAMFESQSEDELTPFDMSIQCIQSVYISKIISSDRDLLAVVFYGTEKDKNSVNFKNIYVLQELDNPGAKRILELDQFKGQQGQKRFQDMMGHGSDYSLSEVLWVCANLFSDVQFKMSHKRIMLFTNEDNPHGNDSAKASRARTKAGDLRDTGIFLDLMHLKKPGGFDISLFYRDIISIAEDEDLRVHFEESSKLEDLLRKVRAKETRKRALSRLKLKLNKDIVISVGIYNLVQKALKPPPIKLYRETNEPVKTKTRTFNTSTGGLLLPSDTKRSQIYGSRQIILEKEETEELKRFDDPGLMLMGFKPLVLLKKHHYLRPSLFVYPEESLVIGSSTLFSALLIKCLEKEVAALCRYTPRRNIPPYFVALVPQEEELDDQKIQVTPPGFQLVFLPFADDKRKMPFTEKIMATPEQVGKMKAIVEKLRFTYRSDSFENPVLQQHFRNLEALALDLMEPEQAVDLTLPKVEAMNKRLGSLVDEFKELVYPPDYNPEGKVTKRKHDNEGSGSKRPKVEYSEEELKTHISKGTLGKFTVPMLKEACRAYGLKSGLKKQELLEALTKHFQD", "sequence (P13010 whole entry, chain 2 of 2)": "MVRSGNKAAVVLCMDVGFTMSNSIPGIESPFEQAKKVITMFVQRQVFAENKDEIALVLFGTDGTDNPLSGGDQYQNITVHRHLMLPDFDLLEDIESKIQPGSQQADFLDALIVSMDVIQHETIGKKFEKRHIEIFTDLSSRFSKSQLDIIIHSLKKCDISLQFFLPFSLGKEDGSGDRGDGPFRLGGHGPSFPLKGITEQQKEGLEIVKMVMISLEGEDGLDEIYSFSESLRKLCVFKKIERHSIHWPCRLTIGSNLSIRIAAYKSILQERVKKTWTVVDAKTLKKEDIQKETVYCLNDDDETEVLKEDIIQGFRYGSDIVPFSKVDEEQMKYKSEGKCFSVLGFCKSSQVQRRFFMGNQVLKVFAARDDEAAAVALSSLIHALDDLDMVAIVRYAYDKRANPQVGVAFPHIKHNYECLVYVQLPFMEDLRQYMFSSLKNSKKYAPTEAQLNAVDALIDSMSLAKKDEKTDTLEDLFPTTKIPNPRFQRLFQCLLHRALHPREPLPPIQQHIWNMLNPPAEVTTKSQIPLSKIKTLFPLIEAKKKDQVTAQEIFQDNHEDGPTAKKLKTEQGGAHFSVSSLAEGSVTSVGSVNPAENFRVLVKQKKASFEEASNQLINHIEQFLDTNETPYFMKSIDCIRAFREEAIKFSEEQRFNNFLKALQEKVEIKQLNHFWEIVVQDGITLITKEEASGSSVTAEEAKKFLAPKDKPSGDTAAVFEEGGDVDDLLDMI"}, "[9]": {"target": "T7, Ku70 peptide 15 (amino acids 310-322)", "T7 chain": "LLLPSDTKRSQIY"}, "[10]": {"target": "T8, Ku70 peptide 3 (amino acids 44-58)", "T8 chain": "ASKAMFESQSEDELT"}, "[11]": {"target": "T9, Ku70 peptide 8 (amino acids 157-173)", "T9 chain": "VQFKMSHKRIMLFTNED"}},
  "data": [
    {"protein": "B1", "values": [
      {"measurement": "deacetylation of acetylated Ku70 peptide by recombinant SIRT1 (slot blot with pan-acetyl-lysine antibody; fluorogenic peptide assay)", "setting": "[1]", "value": "SIRT1 efficiently deacetylated the two lysines in the C-terminus of Ku70 that are critical for regulating Bax"},
      {"measurement": "deacetylation of acetylated Ku70 peptide by recombinant SIRT1 (slot blot with pan-acetyl-lysine antibody; fluorogenic peptide assay)", "setting": "[2]", "value": "SIRT1 efficiently deacetylated the two lysines in the C-terminus of Ku70 that are critical for regulating Bax"},
      {"measurement": "deacetylation of acetylated Ku70 peptide by SIRT1", "setting": "[3]", "value": "this residue is acetylated in vivo, but is both a poor substrate of SIRT1 (FIG. 8D) and plays no apparent role in Bax-mediated apoptosis in vivo"}
    ]},
    {"protein": "B2", "values": [
      {"measurement": "in vitro acetylation of Ku70 peptides", "setting": "[4]", "value": "only two (16 and 29) were strongly acetylated by both PCAF and CBP"},
      {"measurement": "in vitro acetylation of Ku70 peptides", "setting": "[5]", "value": "only two (16 and 29) were strongly acetylated by both PCAF and CBP"},
      {"measurement": "in vitro acetylation of peptide 29 variants", "setting": "[6]", "value": "the peptide that retained K542 (KRRR) was the preferred target of both PCAF and CBP and was acetylated to almost the same extent as the original peptide 29 (KKKK)"},
      {"measurement": "in vitro acetylation of peptide 29 variants", "setting": "[7]", "value": "K553 (RRKR) was also weakly acetylated by PCAF and CBP"},
      {"measurement": "in vitro acetylation (3H-acetyl-CoA, SDS-PAGE, autoradiography)", "setting": "[8]", "value": "a strongly labeled band corresponding to the size of Ku70 was observed in each of the complete acetyltransferase reactions; Based on the intensity of the bands, CBP has the strongest preference for Ku70"}
    ]},
    {"protein": "B3", "values": [
      {"measurement": "in vitro acetylation (3H-acetyl-CoA, SDS-PAGE, autoradiography)", "setting": "[8]", "value": "a strongly labeled band corresponding to the size of Ku70 was observed in each of the complete acetyltransferase reactions"}
    ]},
    {"protein": "B4", "values": [
      {"measurement": "Relative Intensity of Acetylation", "setting": "[9]", "value": "+++"},
      {"measurement": "Relative Intensity of Acetylation", "setting": "[4]", "value": "+++"},
      {"measurement": "Relative Intensity of Acetylation", "setting": "[5]", "value": "+++++"},
      {"measurement": "Relative Intensity of Acetylation", "setting": "[10]", "value": "+"},
      {"measurement": "Relative Intensity of Acetylation", "setting": "[11]", "value": "++"},
      {"measurement": "in vitro acetylation of peptide 29 variants", "setting": "[6]", "value": "the peptide that retained K542 (KRRR) was the preferred target of both PCAF and CBP and was acetylated to almost the same extent as the original peptide 29 (KKKK)"},
      {"measurement": "in vitro acetylation of peptide 29 variants", "setting": "[7]", "value": "K553 (RRKR) was also weakly acetylated by PCAF and CBP"},
      {"measurement": "in vitro acetylation (3H-acetyl-CoA, SDS-PAGE, autoradiography)", "setting": "[8]", "value": "a strongly labeled band corresponding to the size of Ku70 was observed in each of the complete acetyltransferase reactions"}
    ]}
  ]
}
